Columns and labels:
[1] = Tumor tissue distribution by autofluorescence after intravenous injection; format: in vivo; conditions: 10 μmol/kg intravenously, after 12 hours, FIG. 2
Procedure: Since DOX, Succinyl-AANL-DOX and S3 have autofluorescence, they can be detected by fluorescence microscopy in tumor tissues. 10 μmol/kg of DOX, Succinyl-AANL-DOX and S3 were injected intravenously. After 12 hours, the drug distribution image of the tumor tissue sections and the fluorescence intensity of the tumor tissue homogenate were measured. Nuclear staining was performed using DAPI.

aspartic endopeptidase = biological target: T1, aspartic endopeptidase (Homo sapiens, UniProt Q99538); assay: Activation efficiency by aspartic endopeptidase (HPLC); format: biochemical; conditions: 1 mg/ml compound, enzyme 1 μmol/L, pH 6.0, 37° C., 2 hours; ratio of released product to original compound
T1 sequence (Q99538 18-323): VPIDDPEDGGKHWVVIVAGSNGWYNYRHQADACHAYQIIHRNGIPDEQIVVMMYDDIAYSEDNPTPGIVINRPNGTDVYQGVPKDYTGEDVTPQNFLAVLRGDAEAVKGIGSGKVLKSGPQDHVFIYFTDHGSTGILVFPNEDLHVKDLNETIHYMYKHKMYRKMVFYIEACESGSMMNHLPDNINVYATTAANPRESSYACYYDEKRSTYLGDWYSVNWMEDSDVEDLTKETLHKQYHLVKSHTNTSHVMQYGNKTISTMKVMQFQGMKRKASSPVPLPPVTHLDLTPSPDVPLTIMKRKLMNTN
Procedure: The sample compound and a portion of the control compound (herein, all of the control compounds can be synthesized by a method similar to that described in Examples 1-3) were uniformly diluted 10-fold to 1 mg/ml with the enzyme-digesting solution. In this experiment, 1 mg/ml of the sample compound was added to the aspartic endopeptidase (1 μmol/L, pH 6.0) at 37° C. for 2 hours. After the reaction, the enzyme digest was able to release the enzyme-digested product. The decrease in the compound and the increase in the product were examined by HPLC to compare the enzyme activation efficiency (the ratio of the product released by the enzyme cleavage to the original compound).

[2] = Solid stability, 60° C. for 10 days in the dark (HPLC); format: physicochemical; conditions: solid, 60° C., 10 days, dark
Procedure: The test was carried out by leaving it at 60° C. for 10 days in the dark. The ratio of the change in the content of the compound to the compound at time 0 was measured by HPLC, and the stability value (%) was calculated.

[3] = Drug content in tumor tissue homogenate (HPLC); format: in vivo; conditions: 10 micromoles per kilogram intravenous, tumor-bearing mice, FIG. 4
Procedure: Intravenous injection of 10 micromoles per kilogram of the drug into tumor-bearing mice, surgically obtained tumor tissue homogenate, and the drug content was determined by the HPLC method.

[4] = MTD (maximum tolerated dose) acute toxicity in mice; format: in vivo, mouse; conditions: female, mouse, in vivo; BALB/C mice, intravenous, observed 17 days
BALB/C mouse = assay: as above; format: in vivo; conditions: intravenous
CT26 tumor cells = assay: CT26 immunotherapy model (Example 15); format: in vivo, mice
D121 lung cancer cells = assay: D121 lung cancer immunotherapy model; conditions: single agent
Procedure: (1) D121 lung cancer cells purchased from ATCC were cultured in DMEM medium containing 10% fetal bovine serum at 37° C. and 5% CO2, and the cells were digested with EDTA trypsin according to routine use, and passed two to three times a week for placement.
(2) Animals: C57 BALB/C mice, 6-8 weeks old, female, weighing about 18-22 g, purchased from Shanghai SLAC Laboratory Animal Co., Ltd.
3) Immunization: Mice were intraperitoneally injected with 100 μL of 5×10^5 D121 lung cancer cells that died by repeated freeze-thaw cycles, and immunized 3 times with an interval of 2 weeks.
4) Cell seeding: Collect the tumor cells in logarithmic growth phase, adjust the D121 cell concentration to (1×10^7/ml) with DMEM basal medium, 0.1 ml of the cell suspension was inoculated to the right side of each mouse subcutaneously with a 1 ml syringe. […] Tumor volume was observed and measured, and the average tumor volume reached 100-200 mm^3 about 7 days after inoculation, that is, tumor cell-bearing mice were grouped and administered. The immunized group in Table 9 was immunized with D121 lung cancer cells, and the D121 dead tumor cell immunized group was injected with physiological saline as a control.
The immunosuppressive regulatory point protein Anti-PD-L1 antibody was injected twice a week. A total of two weeks.
6) Experimental observation: During the whole experiment, the use and observation of experimental animals were carried out in accordance with the regulations of AAALAC. The experimental animals were observed daily after inoculation of tumor cells, and their onset and death were recorded. During the routine experiment, all experimental animals were monitored and recorded for behavior, feeding, water intake, weight change, hair shine and other abnormalities.
(7) Analysis of tumor CD8+ T cells (T lymphocyte subsets). Tumor tissues were ground and single cancer cells were isolated by filtration using 40 μm Nylon cell strainer, lysed twice with blood cell lysis buffer for 20 min, washed twice with 1% BSA-PBS buffer, centrifuged, and resuspended, and then the cells were counted again. 1×10^5 cells were incubated with leukocyte co-antigen CD45-PE and CD8-FITC-labeled antibody for 1 hour at room temperature in the dark, and then analyzed the proportion of T lymphocyte antigen (CD8) in leukocyte common antigen (CD45)-positive cells by flow cytometry.

In the case of `COc1cccc2c1C(=O)c1c(O)c3c(c(O)c1C2=O)C[C@](O)(C(=O)CO)CC3OC1C[C@H](NC(=O)OCc2ccc(NC(=O)C(CC(N)=O)NC(=O)C(C)NC(=O)C(C)NC(=O)[C@H](O)[C@H](O)[C@@H](O[C@@H]3O[C@H](CO)[C@H](O)[C@H](O)[C@H]3O)[C@H](O)CO)cc2)[C@H](O)[C@H](C)O1` (some centres unmarked) [Compound S3, Lacto-AAN-PABC-Adriamycin], the “tumor tissue distribution and penetration” value [1] is reported as “more tumor tissue distribution and penetration after intravenous injection than Succinyl-AANL-DOX”, the “Activation efficiencies (%)” value (aspartic endopeptidase) is reported as 82.6% and the “Stability verdict (stable / unstable)” value [2] is reported as “stable”. The “Stability(%)” value ([2]; content versus time 0) was 99.8%, the “drug distribution in the tumor” value [3] was “increasing the distribution in the tumor compared to C11” and the MTD at 17 days [4] was 100 mg/kg. For the same compound, the Number of deaths (BALB/C mouse; 10 mice per group) was 1, the “Death dose” value (BALB/C mouse; observed 17 days) was 110 mg/kg and the Cure rate % (CT26 tumor cells; 10 in each group) was 80%. The Number of cures (CT26 tumor cells; 10 in each group) was 8, the “Tumor inhibition rate % (Day 42)” value (CT26 tumor cells; IV ⅓ MTD once a week, 6 weeks) was 82.5% and the “Recurrence rate % (Week 7)” value (CT26 tumor cells; cured mice re-inoculated with CT26 cells after 50 days) was 0%. The “Tumor inhibition rate/% (week 7)” value (D121 lung cancer cells; i.v. ⅙ MTD once a week for 4 weeks) was 62.5% and the “CD8: CD45 (%)” value (D121 lung cancer cells; tumor CD8+ T cells among CD45-positive cells, flow cytometry) was 14.6%.
